The values that follow come from publication PMC6028955.

The target in this experiment is histone H2A–H2B (from chicken blood histone core octamers) (chicken) (UniProt P02263). Put plainly: ITC; 25 °C, 20 mM HEPES pH 7.5, 200 mM NaCl, 1 mM DTT; histones in the cell at 20–30 μM, SSRP1 variants in the syringe at 10 times that concentration. A general note: ITC needs no label: the signal is the heat of the interaction.

Sequence of DdSSRP1 containing only the ID1 region (residues 479–527) (Q54G78 479-527): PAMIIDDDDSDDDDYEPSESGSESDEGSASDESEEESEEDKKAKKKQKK
Sequence of full-length DdSSRP1 (Q54G78 whole entry): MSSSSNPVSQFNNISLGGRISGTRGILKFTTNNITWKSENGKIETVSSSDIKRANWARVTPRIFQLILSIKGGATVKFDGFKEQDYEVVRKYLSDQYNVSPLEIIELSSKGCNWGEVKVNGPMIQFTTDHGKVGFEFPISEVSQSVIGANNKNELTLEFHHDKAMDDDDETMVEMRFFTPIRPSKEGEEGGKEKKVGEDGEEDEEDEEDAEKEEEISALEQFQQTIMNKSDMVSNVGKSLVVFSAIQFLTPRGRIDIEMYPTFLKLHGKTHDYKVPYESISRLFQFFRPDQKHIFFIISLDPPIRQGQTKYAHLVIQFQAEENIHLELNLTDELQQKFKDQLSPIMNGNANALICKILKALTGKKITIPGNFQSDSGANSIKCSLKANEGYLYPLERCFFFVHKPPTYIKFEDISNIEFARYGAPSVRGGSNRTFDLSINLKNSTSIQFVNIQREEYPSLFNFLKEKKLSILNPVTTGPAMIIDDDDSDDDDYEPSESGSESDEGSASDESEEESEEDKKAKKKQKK

As a reminder, the Kd is the free concentration of one partner at which half of the binding sites on the other are occupied at equilibrium, for simple one-to-one binding. Turning to “DdSSRP1 containing only the ID1 region (residues 479–527) (from UniProt Q54G78 479-527) (domain or fragment)”, the Kd worked out at 190 nM.

As to “full-length DdSSRP1 (from UniProt Q54G78 1-527) (natural protein)”, the Kd was 310 nM.
